Consider ten molecules from article PMC10397247.

Holding throughout (test): two-hybrid library CCmax;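 note: natural log of median RNA to DNA barcode read ratio; higher means stronger binding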
The target in assay [1] is T1, O14-AA.
T1 chain: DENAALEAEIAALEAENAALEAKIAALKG
The following applies: mean of both orientations.

Assay [2] addresses T2, 4H2649-AA.
T2 chain: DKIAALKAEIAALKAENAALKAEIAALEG
The following applies: mean of both orientations.

Assay [3] has as its target T3, 4H3753-AA.
T3 chain: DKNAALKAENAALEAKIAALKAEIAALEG
The following applies: mean of both orientations.

For assay [4], the target named is T4, 4H3120-AA.
T4 chain: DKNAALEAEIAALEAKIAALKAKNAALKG
The note with it: mean of both orientations.

In assay [5] the target is T5, 4H3395-AA.
T5 chain: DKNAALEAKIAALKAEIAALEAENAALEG
The note with it: mean of both orientations.

Assay [6] concerns the target T6, O11-AA.
T6 chain: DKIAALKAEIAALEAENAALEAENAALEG
The note with it: mean of both orientations.

The target in assay [7] is T7, 4H1877-AA.
T7 chain: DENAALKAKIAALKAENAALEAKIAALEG
The note with it: mean of both orientations.

For assay [8], the target named is T8, 4H1864-AA.
T8 chain: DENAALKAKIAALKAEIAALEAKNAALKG
The note with it: mean of both orientations.

In assay [9] the target is T9, 4H3381-AA.
T9 chain: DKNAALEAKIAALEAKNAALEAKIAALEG
The following applies: mean of both orientations.

Assay [10] has as its target T10, 4H384-AA.
T10 chain: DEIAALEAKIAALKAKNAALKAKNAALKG
The note with it: mean of both orientations.

For assay [11], the target named is T11, 4H171-AA.
T11 chain: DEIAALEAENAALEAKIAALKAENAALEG

Assay [12] has as its target T12, 4H2389-AA.
T12 chain: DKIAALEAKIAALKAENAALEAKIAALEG
The following applies: mean of both orientations.

The target of assay [13] is T13, P9-AA.
T13 chain: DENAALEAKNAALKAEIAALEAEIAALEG
The note with it: mean of both orientations.

Assay [14] concerns the target T14, 4H3939-AA.
T14 chain: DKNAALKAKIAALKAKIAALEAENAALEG
The following applies: mean of both orientations.

The target of assay [15] is T15, 4H2699-AA.
T15 chain: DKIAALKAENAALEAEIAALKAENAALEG
The following applies: mean of both orientations.

The target in assay [16] is T16, 4H406-AA.
T16 chain: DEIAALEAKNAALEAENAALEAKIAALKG
The following applies: mean of both orientations.

Assay [17] addresses T17, 4H3595-AA.
T17 chain: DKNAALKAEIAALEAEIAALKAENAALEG

The target of assay [18] is T18, 4H56-AA.
T18 chain: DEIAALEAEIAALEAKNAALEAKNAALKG
The following applies: mean of both orientations.

In assay [19] the target is T19, 4H2580-AA.
T19 chain: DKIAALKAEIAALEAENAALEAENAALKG
The following applies: mean of both orientations.

Assay [20] has as its target T20, 4H3438-AA.
T20 chain: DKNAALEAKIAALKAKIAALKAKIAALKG
The note with it: mean of both orientations.

The target in assay [21] is T21, 4H2931-AA.
T21 chain: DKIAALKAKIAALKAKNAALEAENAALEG
The following applies: mean of both orientations.

The target of assay [22] is T22, 4H3001-AA.
T22 chain: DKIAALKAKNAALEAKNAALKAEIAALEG
The note with it: mean of both orientations.

Assay [23] deals with T23, 4H881-AA.
T23 chain: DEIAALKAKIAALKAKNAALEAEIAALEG
The note with it: mean of both orientations.

In assay [24] the target is T24, 4H3844-AA.
T24 chain: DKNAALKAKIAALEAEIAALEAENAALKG
The following applies: mean of both orientations.

Assay [25] deals with T25, 4H2198-AA.
T25 chain: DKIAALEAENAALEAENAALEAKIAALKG
The note with it: mean of both orientations.

In assay [26] the target is T26, 4H3413-AA.
T26 chain: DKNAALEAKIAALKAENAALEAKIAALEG
The note with it: mean of both orientations.

Assay [27] deals with T27, 4H317-AA.
T27 chain: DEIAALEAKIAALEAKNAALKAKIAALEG

In assay [28] the target is T28, 4H2837-AA.
T28 chain: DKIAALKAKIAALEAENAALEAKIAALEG

The target of assay [29] is T29, 4H3655-AA.
T29 chain: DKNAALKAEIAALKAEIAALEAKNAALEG
The note with it: mean of both orientations.

Assay [30] has as its target T30, 4H2883-AA.
T30 chain: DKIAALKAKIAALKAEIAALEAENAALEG
The note with it: mean of both orientations.

Assay [31] concerns the target T31, 4H2648-AA.
T31 chain: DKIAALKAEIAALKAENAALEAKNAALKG
The note with it: mean of both orientations.

For assay [32], the target named is T32, 4H429-AA.
T32 chain: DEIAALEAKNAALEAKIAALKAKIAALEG
The note with it: mean of both orientations.

For assay [33], the target named is T33, 4H342-AA.
T33 chain: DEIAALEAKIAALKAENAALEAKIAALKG
The note with it: mean of both orientations.

In assay [34] the target is T34, 4H906-AA.
T34 chain: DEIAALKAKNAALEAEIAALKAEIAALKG
The following applies: mean of both orientations.

Assay [35] addresses T35, 4H2466-AA.
T35 chain: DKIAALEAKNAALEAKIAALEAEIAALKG
The following applies: mean of both orientations.

The target in assay [36] is T36, 4H1594-AA.
T36 chain: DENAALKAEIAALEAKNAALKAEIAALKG
The note with it: mean of both orientations.

Assay [37] addresses T37, 4H2642-AA.
T37 chain: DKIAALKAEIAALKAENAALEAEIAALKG
The note with it: mean of both orientations.

Assay [38] concerns the target T38, 4H1513-AA.
T38 chain: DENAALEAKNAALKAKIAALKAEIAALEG
The note with it: mean of both orientations.

In assay [39] the target is T39, 4H3427-AA.
T39 chain: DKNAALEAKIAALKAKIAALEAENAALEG
The note with it: mean of both orientations.

Read-outs that look alike come from different tables or passages of the source.

Take DEIAALEAENAALEAKIAALKAENAALEG [4H171-AA]: the interaction score in assay [1] is -1.07; in assay [2], -0.999; in assay [3] it was -1.25; in [4], -1.42; in [5] it was -1.24; in assay [6] it was -1.82. Moreover, the interaction score in assay [7] was -1.1; in assay [8], 0.435; in assay [9] it was -1.57; in [10], -1.36; in assay [11] it was -1.01; in [12], -1.07. Besides, the interaction score in assay [13] was -0.774.
Turning to DEIAALEAENAALKAKNAALKAEIAALEG [4H249-AA], the interaction score in assay [14] is -1.85; in assay [15], -1.1; in [16], 1.19; in [17] (mean of both orientations), -1.4; in [18], -1.62; in [19], -0.825. The interaction score in [20] was -1.6; in [21], -1.53; in assay [9], -1.79; in assay [22], -1.12.
As for DENAALEAENAALEAEIAALEAEIAALEG [4H1153-AA], the interaction score in assay [23] is -1.26; in [24], -0.484; in assay [25] it was -1.56; in assay [26] it was -1.92; in assay [27] (mean of both orientations), -1.45; in assay [28] (mean of both orientations) it was -1.49. The interaction score is -0.01 in assay [29]; -1.14 in assay [30]; -1.19 in assay [31]; 0.137 in assay [32]; -1.39 in [33]; -1.21 in [34]. Besides, the interaction score in assay [35] is -1.53; in [36], -1.13; in assay [10], -0.314; in [37], -1.43; in assay [38], 1.5; in assay [39] it was -0.781.
With DKNAALKAEIAALEAENAALEAKIAALKG [4H3606-AA], the interaction score in assay [23] is 2.32; in assay [24], -1.17; in assay [29] it was -1.72; in assay [32], 0.643; in assay [34], -1.72; in assay [10] it was 1.18. This molecule returned an interaction score in assay [13] of -0.51.
For DENAALEAENAALKAKIAALKAEIAALEG [4H1257-AA], the interaction score is -1.27 in [14]; -0.951 in assay [15]; 0.807 in assay [17] (mean of both orientations); -1.12 in assay [19]; -1.17 in assay [39].
In the case of DKIAALEAENAALKAEIAALKAKIAALEG [4H2253-AA], the interaction score in [2] was -1.27; in assay [3] it was -1.13; in [4], -1.77; in [16] it was -1.67; in assay [5], -1.22; in [18], -1.23. For the same molecule, the interaction score was -1.2 in assay [20]; -1.52 in assay [21]; -1.68 in [35]; -1.4 in [9]; -1.42 in assay [22]; -1.29 in assay [12].
DENAALEAEIAALEAKIAALEAKNAALKG [4H1064-AA]: the interaction score is 2.3 in [14], -1.48 in assay [15], 0.0501 in assay [17] and 1.19 in [19].
With DENAALEAKIAALKAKNAALKAEIAALEG [4H1401-AA], the interaction score is -0.879 in assay [23]; -0.79 in assay [24]; 1.85 in assay [25]; 0.857 in assay [26]; -1.49 in assay [27]; 1.61 in assay [28] (mean of both orientations). Further, the interaction score in assay [29] was -1.48; in [30] it was -1.43; in [31], 0.46; in assay [32] it was 0.239; in assay [33] it was 2.15; in assay [34], -1.91. Further, the interaction score in [35] was -1.54; in assay [36], -0.109; in [10] it was -1.67; in assay [37], 1.3; in assay [38], -1.9; in assay [39], -1.52. In assay [13], this molecule gave an interaction score of -0.999.
On to DKIAALEAEIAALKAKNAALEAKIAALEG [4H2165-AA], for which the interaction score in assay [23] was 0.00404; in [24] it was -1.35; in [27] (mean of both orientations), 0.575; in assay [16] it was -1.15; in [28] it was 0.959; in assay [29], -1.37. The interaction score was -1.67 in assay [30]; -0.766 in assay [18]; -1.07 in assay [20]; -1.87 in assay [32]; 1.73 in [33]; -1.58 in assay [21]. Further, the interaction score was -1.29 in assay [34]; -1.49 in assay [35]; 0.223 in assay [37]; -1.67 in [22]; -1.3 in assay [39].
In the case of DENAALKAKIAALEAKNAALEAKIAALEG [4H1845-AA], the interaction score in assay [25] is -1.5; in assay [26] it was -0.729; in assay [31], -1.59; in assay [10], -1.55; in assay [39], -1.86.
